According to the RNAGym collection of RNA variant scans (doi:10.7554/elife.80360):

B1: Twister Ribozyme (parent)
chain: AACACUGCCAAUGCCGGUCCCAAGCCCGGAUAAAAGUGGAGGGGGCGG

Variants of: B1
Assay: self-cleavage, relative activity (ratio to wild type); higher = more cleavage; co-transcriptional

| Variant | self-cleavage |
| --- | --- |
| AACACUGCCAAUGGCGGUCCCAAGCUCGGAUAAAAGUGGAGGGGGCGG [C14G C26U] | 0.0493 |
| AACACUGCCAAUGACGGUCCCAAGCCCGGAUAAAAGUGGAGGGGGCCG [C14A G47C] | 0.44 |
| AACACUGCCAAUGACGGUCCCAAGCCCGGAUAAAAGUGGAGGGUGCGG [C14A G44U] | 0.883 |
| AACACUGCCAAUGGCGGUCCCAAGCCCGGAUAUAAGUGGAGGGGGCGG [C14G A33U] | 0.172 |
| AACACUGCCAAUGGCGGUUCCAAGCCCGGAUAAAAGUGGAGGGGGCGG [C14G C19U] | 0.426 |
| AACACUGCCAAUGGCGGUCCCAAGCCCAGAUAAAAGUGGAGGGGGCGG [C14G G28A] | 0.162 |
| AACACUGCCAAUGGCGGUCCCAAGCCCCGAUAAAAGUGGAGGGGGCGG [C14G G28C] | 0.106 |
| AACACUGCCAAUGGCGGUCCCAAGCCCGGAUCAAAGUGGAGGGGGCGG [C14G A32C] | 0.12 |
| AACACUGCCAAUGGCGGUCCCAAGCCCGGAUGAAAGUGGAGGGGGCGG [C14G A32G] | 0.117 |
| AACACUGCCAAUGGCGGUCCCAAGCCCGGAUAAAAGUUGAGGGGGCGG [C14G G38U] | 0.111 |
| AACACUGCCAAUGGCGGUCCCAAGCCCGGAUAAAAGUCGAGGGGGCGG [C14G G38C] | 0.159 |
| AACACUGCCAAUGGCGGUCCUAAGCCCGGAUAAAAGUGGAGGGGGCGG [C14G C21U] | 0.0834 |
| AACACUGCCAAUGGCGGUCCCAAGCCCGGAUAAAUGUGGAGGGGGCGG [C14G A35U] | 0.125 |
| AACACUGCCAAUGACGGUCCCAAGCCCGGAUAAAAGUGGAGGUGGCGG [C14A G43U] | 0.456 |
| AACACUGCCAAUGGCGGUCCCAAGCCCGGAUAACAGUGGAGGGGGCGG [C14G A34C] | 0.0831 |
| AACACUGCCAAUGGCGGUCCCAAGCCCGGAUAAUAGUGGAGGGGGCGG [C14G A34U] | 0.159 |
| AACACUGCCAAUGGCGGUCCCAAGCCCGGAUAAAAGUGGAGGGCGCGG [C14G G44C] | 0.129 |
| AACACUGCCAAUGACGGACCCAAGCCCGGAUAAAAGUGGAGGGGGCGG [C14A U18A] | 0.485 |
| AACACUGCCAAUGACGGGCCCAAGCCCGGAUAAAAGUGGAGGGGGCGG [C14A U18G] | 0.0811 |
| AACACUGCCAAUGACGGCCCCAAGCCCGGAUAAAAGUGGAGGGGGCGG [C14A U18C] | 0.371 |
| AACACUGCCAAUGGCGGUCCCGAGCCCGGAUAAAAGUGGAGGGGGCGG [C14G A22G] | 0.0913 |
| AACACUGCCAAUGGCGGUCCCAACCCCGGAUAAAAGUGGAGGGGGCGG [C14G G24C] | 0.0845 |
| AACACUGCCAAUGACGGUCCCAAGCCCGGAGAAAAGUGGAGGGGGCGG [C14A U31G] | 0.942 |
| AACACUGCCAAUGACGGUCCCAAGCCCGGACAAAAGUGGAGGGGGCGG [C14A U31C] | 0.913 |
| AACACUGCCAAUGGCGGUCCCAAGCCCGGAUAAAAGUGGAGGGGGUGG [C14G C46U] | 0.175 |
| AACACUGCCAAUGGCGGUCCCAAGCCCGGAUAAAAGUGGAGGGGGGGG [C14G C46G] | 0.101 |
| AACACUGCCAAUGGCUGUCCCAAGCCCGGAUAAAAGUGGAGGGGGCGG [C14G G16U] | 0.138 |

| Variant | self-cleavage |
| --- | --- |
| AACACUGCCAAUGGCGCUCCCAAGCCCGGAUAAAAGUGGAGGGGGCGG [C14G G17C] | 0.124 |
| AACACUGCCAAUGGCGAUCCCAAGCCCGGAUAAAAGUGGAGGGGGCGG [C14G G17A] | 0.122 |
| AACACUGCCAAUGGCGGUCCCAAGCCCGGAUAAAAGUGGAUGGGGCGG [C14G G41U] | 0.111 |
| AACACUGCCAAUGGCGGUCCCAAGCCCGGAUAAAAGUGGACGGGGCGG [C14G G41C] | 0.0824 |
| AACACUGCCAAUGACGGUCCCAAGCCCGGAUAAAAGUGGAUGGGGCGG [C14A G41U] | 0.55 |
| AACACUGCCAAUGACGGUCCCAAGCCCGGAUAAAAGUGGAAGGGGCGG [C14A G41A] | 0.591 |
| AACACUGCCAAUGACGGUCCCAAGCCCGGAUAAAAGUGGAGGGGGCGU [C14A G48U] | 0.887 |
| AACACUGCCAAUGACGGUCCCAAGCCCGGAUAAAAGUGGAGGGGGCGA [C14A G48A] | 0.868 |
| AACACUGCCAAUGGCGGUCCCAAGACCGGAUAAAAGUGGAGGGGGCGG [C14G C25A] | 0.0733 |
| AACACUGCCAAUGGCGGUCCCAUGCCCGGAUAAAAGUGGAGGGGGCGG [C14G A23U] | 0.0448 |
| AACACUGCCAAUGGCGGUCCCACGCCCGGAUAAAAGUGGAGGGGGCGG [C14G A23C] | 0.0556 |
| AACACUGCCAAUGGUGGUCCCAAGCCCGGAUAAAAGUGGAGGGGGCGG [C14G C15U] | 0.401 |
| AACACUGCCAAUGGCGGUCCCAAGCCCGGAUAAAAUUGGAGGGGGCGG [C14G G36U] | 0.0782 |
| AACACUGCCAAUGGCGGUCCCAAGCCCGGAUAAAACUGGAGGGGGCGG [C14G G36C] | 0.065 |
| AACACUGCCAAUGGCGGUCCCAAGCCCGGAUAAAAAUGGAGGGGGCGG [C14G G36A] | 0.0659 |
| AACACUGCCAAUGACGGUCCCAAGCCCGGAUAAAAGGGGAGGGGGCGG [C14A U37G] | 0.725 |
| AACACUGCCAAUGACGGUCCCAAGCCCGGAUAAAAGCGGAGGGGGCGG [C14A U37C] | 0.619 |
| AACACUGCCAAUGGCGGUCCCAAGCCCGGAUAAAAGUGGAGGCGGCGG [C14G G43C] | 0.0465 |
| AACACUGCCAAUGGCGGUCCCAAGCCCGGAUAAAAGUGGAGGUGGCGG [C14G G43U] | 0.08 |
| AACACUGCCAAUGGCGGUCCCAAGCCCGGAUAAAAGUGGAGAGGGCGG [C14G G42A] | 0.0786 |
| AACACUGCCAAUGGCGGUCCCAAGCCCGGAUAAAAGUGGAGUGGGCGG [C14G G42U] | 0.0931 |
| AACACUGCCAAUGACGGUCCCAAGCCCGGAUAAAAGUGGAGGGGUCGG [C14A G45U] | 0.698 |
| AACACUGCCAAUGGCGGUCCCAAGCCCGUAUAAAAGUGGAGGGGGCGG [C14G G29U] | 0.192 |
| AACACUGCCAAUGGCGGUCCCAAGCCCGCAUAAAAGUGGAGGGGGCGG [C14G G29C] | 0.228 |
| AACACUGCCAAUGGCGGUCCCAAGCCCGGUUAAAAGUGGAGGGGGCGG [C14G A30U] | 0.146 |
| AACACUGCCAAUGGCGGUCUCAAGCCCGGAUAAAAGUGGAGGGGGCGG [C14G C20U] | 0.25 |
| AACACUGCCAAUGGCGGUCGCAAGCCCGGAUAAAAGUGGAGGGGGCGG [C14G C20G] | 0.111 |
